From the supplement of paper PMC12783771
± gives the standard deviation of the averaged measurements.

B1: library; numbered along this chain (parent)
chain: MNIQIGELAKRTACPVVTIRFYEQEGLLPPPGRSRGNFRLYGEEHVERLQFIRHCRSLDMPLSDVRTLLSYRKRPDQDCGEVNMLLDEHIRQVESRIGALLELKHHLVELREACSGARPAQSCGILQGLSDCVCDTRGTTAHPSD

How the values were obtained:
[1] = variants of: B1; experiment: sfGFP reporter fluorescence (15 h) (µM FITC); higher = higher leak; settings: library round: Round 0; ligand: none
How it was run: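 An Echo normalized PCR-made linear PbrR templates to 5 nM and assembled 1 μL reactions in BL21 Star (DE3) PANOx-SP extract carrying the pPbrR-sfGFP reporter plasmid and 30 μg/mL GamS. Reactions received 1 µM lead chloride, 30 µM zinc acetate or no metal and stood 15 hr at 30 °C. Fluorescence at 485/528 nm (Synergy Neo2) was converted with FITC standard curves made in 50 mM sodium borate pH 8.5. Endpoint sfGFP signal is given in µM FITC, from up to three biological replicates.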

[2] = variants of: B1; experiment: sfGFP reporter fluorescence (15 h) (µM FITC); higher = stronger transcriptional activation; settings: library round: Round 0
Protocol: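 Cell-free (BL21 Star DE3 extract, PANOx-SP) biosensing: 1 µL Echo-assembled reactions with linear PbrR variant templates (5 nM) and pPbrR-sfGFP reporter, with 1 µM Pb (lead chloride), 30 µM Zn (zinc acetate) or no ligand; endpoint sfGFP fluorescence after 15 h at 30 °C, calibrated as µM FITC. Round 0 library (alanine scan, site saturation, combinatorial) of PbrR from Cupriavidus metallidurans; 2 biological replicates.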

Variant | sfGFP reporter fluorescence [1] | sfGFP reporter fluorescence ([2]; ligand: 1 µM Pb) | sfGFP reporter fluorescence ([2]; ligand: 30 µM Zn)
L28H | 0.06249 ± 0.00026 | 0.0625 ± 0.0013 | 0.0563 ± 0.0034
L28E | 0.06304 ± 0.00052 | 0.0649 ± 0.0015 | 0.0656
L28M | 0.0616 | 0.077 ± 0.0015 | 0.618 ± 0.023
L129Y | 0.057 ± 0.0018 | 0.05901 ± 0.00052 | 0.05626 ± 0.00026
L129K | 0.0581 ± 0.00078 | 0.059 ± 0.0021 | 0.05662 ± 0.00026
L129S | 0.0577 ± 0.0013 | 0.05901 ± 0.00052 | 0.0563 ± 0.00078
L129H | 0.0586 ± 0.0015 | 0.0586 ± 0.0021 | 0.0583 ± 0.0015
L129Q | 0.0588 ± 0.0018 | 0.0574 ± 0.0013 | 0.05406 ± 0.00026
T139A | 0.0616 ± 0.0015 | 0.0737 ± 0.0036 | 0.7601 ± 0.0031
R111M | 0.05772 ± 0.00026 | 0.0623 ± 0.0026 | 0.243 ± 0.001
R111H | 0.05791 ± 0.00052 | 0.0652 ± 0.0026 | 0.2344 ± 0.0013
R111T | 0.0599 ± 0.00078 | 0.07752 ± 0.00026 | 0.535 ± 0.081
R111W | 0.05937 ± 0.00052 | 0.0632 ± 0.0018 | 0.189 ± 0.0042
R111L | 0.0552 ± 0.0013 | 0.06469 ± 0.00026 | 0.2 ± 0.016
D64K K104V L107C | 2.05 ± 0.034 | 4.21 ± 0.2 | 4.1 ± 0.055
R66A | 0.0627 ± 0.0015 | 0.0751 ± 0.0047 | 0.616 ± 0.13
M60H | 0.0623 ± 0.0015 | 0.0614 ± 0.00078 | 0.0638 ± 0.0015
M60F | 1.94 ± 0.16 | 2.94 ± 0.1 | 2.92 ± 0.028
I97S | 0.0592 ± 0.0039 | 0.0722 ± 0.0015 | 0.554 ± 0.0062
I97L | 0.0596 ± 0.0023 | 0.0797 ± 0.0044 | 0.842 ± 0.014
I97D | 0.0596 ± 0.0044 | 0.0575 ± 0.001 | 0.193 ± 0.0054
I97V | 0.0563 ± 0.0023 | 0.0605 ± 0.0026 | 0.338 ± 0.015
L68S | 0.061 ± 0.0023 | 0.05882 ± 0.00026 | 0.0636 ± 0.0039

Variant | sfGFP reporter fluorescence [1] | sfGFP reporter fluorescence ([2]; ligand: 1 µM Pb) | sfGFP reporter fluorescence ([2]; ligand: 30 µM Zn)
L68G | 0.06395 ± 0.00026 | 0.05827 ± 0.00052 | 0.0656 ± 0.00052
L68C | 0.0678 ± 0.0031 | 0.0874 ± 0.0044 | 0.504 ± 0.017
L68E | 0.0623 ± 0.00052 | 0.05974 ± 0.00052 | 0.0652 ± 0.0015
I90D | 0.0568 ± 0.0047 | 0.0561 ± 0.0015 | 0.085 ± 0.0057
I90R | 0.0658 ± 0.0049 | 0.125 | 0.97 ± 0.025
I90P | 0.0574 ± 0.0029 | 0.0616 ± 0.0015 | 0.151 ± 0.0047
M60L P61N L107C G128M | 3.38 ± 0.74 | 4.14 ± 0.57 | 5.5 ± 0.2
D131I | 0.0607 ± 0.0029 | 0.0797 ± 0.0049 | 0.832 ± 0.073
D131G | 0.0566 ± 0.00078 | 0.0991 ± 0.0034 | 0.604 ± 0.15
D131E | 0.059 ± 0.0021 | 0.0825 ± 0.0042 | 0.657 ± 0.043
D131P | 0.0546 ± 0.0015 | 0.0619 ± 0.0021 | 0.134 ± 0.015
D131Q | 0.06432 ± 0.00026 | 0.124 ± 0.0029 | 1.26 ± 0.24
D131H | 0.0621 ± 0.0013 | 0.0957 ± 0.0026 | 0.996 ± 0.034
D131C | 0.05919 ± 0.00026 | 0.0779 ± 0.0013 | 0.242 ± 0.062
G6H | 0.06267 ± 0.00052 | 0.0603 ± 0.00078 | 0.0698 ± 0.0029
G6N | 0.0607 ± 0.00078 | 0.0599 ± 0.0013 | 0.0773 ± 0.0015
L58P | 0.0594 ± 0.0015 | 0.0601 ± 0.001 | 0.0605 ± 0.001
E43G | 0.0583 ± 0.0021 | 0.0883 ± 0.001 | 0.924 ± 0.066
E43V | 0.0605 ± 0.0015 | 0.0883 ± 0.014 | 1.17 ± 0.089
E43D | 0.05754 ± 0.00052 | 0.072 ± 0.012 | 0.744 ± 0.036
D135V | 0.059 ± 0.001 | 0.081 ± 0.0015 | 1.06 ± 0.13
D135H | 0.0665 ± 0.0018 | 0.107 ± 0.0042 | 2.14 ± 0.068
V46P | 0.0537 ± 0.0023 | 0.0592 ± 0.0039 | 0.0641 ± 0.0042

Variant | sfGFP reporter fluorescence [1] | sfGFP reporter fluorescence ([2]; ligand: 1 µM Pb) | sfGFP reporter fluorescence ([2]; ligand: 30 µM Zn)
V46H | 0.0557 ± 0.0015 | 0.0738 ± 0.00078 | 0.345 ± 0.039
V46Q | 0.0544 ± 0.0039 | 0.0858 ± 0.001 | 0.755 ± 0.052
L100A | 0.0803 ± 0.0015 | 0.131 ± 0.0044 | 0.663 ± 0.2
G128R | 0.161 ± 0.007 | 0.316 ± 0.038 | 3.05 ± 0.31
G128Q | 0.06982 ± 0.00026 | 0.117 ± 0.0026 | 2.05 ± 0.43
E7D | 0.0592 ± 0.0018 | 0.0823 ± 0.006 | 1.08 ± 0.044
E7W | 0.0608 ± 0.0015 | 0.06359 ± 0.00026 | 0.19 ± 0.0023
D64K L107C | 3.83 ± 0.36 | 3.75 ± 0.15 | 4.11 ± 0.21
D64K K104V G128I | 0.711 ± 0.092 | 1.75 ± 0.096 | 4.36 ± 0.25
P61N K104V | 0.121 ± 0.016 | 0.385 ± 0.007 | 1.77 ± 0.47
L40A | 0.0608 ± 0.0031 | 0.0658 ± 0.0018 | 0.207 ± 0.0036
Q92A | 0.0592 ± 0.0013 | 0.063 ± 0.0026 | 0.421 ± 0.042
I3E | 0.061 ± 0.0013 | 0.0601 ± 0.001 | 0.101 ± 0.0013
I3Y | 0.0612 ± 0.0021 | 0.06744 ± 0.00052 | 0.977 ± 0.061
I3A | 0.0544 ± 0.0049 | 0.0594 ± 0.001 | 0.339 ± 0.0078
I3S | 0.05864 ± 0.00052 | 0.0605 ± 0.0036 | 0.2084 ± 0.0013
P61W | 0.061 ± 0.0039 | 0.06395 ± 0.00026 | 0.104 ± 0.0018
P61M | 0.0682 ± 0.001 | 0.1424 ± 0.0013 | 0.714 ± 0.039
L85S | 0.059 ± 0.0021 | 0.059 ± 0.0015 | 0.0627
L85R | 0.0596 ± 0.0018 | 0.0577 ± 0.00078 | 0.0652 ± 0.001
L85W | 0.0618 ± 0.0018 | 0.0597 ± 0.0036 | 0.157 ± 0.013
L85T | 0.0601 ± 0.0015 | 0.057 ± 0.0013 | 0.1118 ± 0.00052
L85G | 0.0544 ± 0.0023 | 0.0541 ± 0.0013 | 0.0603 ± 0.00078

Variant | sfGFP reporter fluorescence [1] | sfGFP reporter fluorescence ([2]; ligand: 1 µM Pb) | sfGFP reporter fluorescence ([2]; ligand: 30 µM Zn)
L85P | 0.057 ± 0.0023 | 0.05809 ± 0.00026 | 0.0555 ± 0.0013
C55M | 0.0645 ± 0.0015 | 0.0733 ± 0.0026 | 0.139 ± 0.018
C55I | 0.0583 ± 0.0026 | 0.0616 | 0.112 ± 0.0057
C55Q | 0.0594 ± 0.001 | 0.0588 ± 0.0013 | 0.0585 ± 0.00078
E94H | 0.0592 ± 0.0029 | 0.0632 ± 0.0023 | 0.344 ± 0.021
E94F | 0.0563 ± 0.0044 | 0.0579 ± 0.001 | 0.177 ± 0.006
E94M | 0.0581 ± 0.0018 | 0.0726 ± 0.0047 | 0.598 ± 0.031
P61N K104V L107C G128M | 0.584 ± 0.064 | 2.12 ± 0.083 | 3.41 ± 0.56
L126G | 0.0539 ± 0.0015 | 0.05571 ± 0.00052 | 0.0502 ± 0.0021
L126M | 0.0594 ± 0.0015 | 0.0596 ± 0.0018 | 0.22 ± 0.032
L126R | 0.0619 ± 0.0015 | 0.05992 ± 0.00026 | 0.0572 ± 0.0021
L110V | 0.0601 ± 0.0021 | 0.06634 ± 0.00052 | 0.502 ± 0.065
L110P | 0.0594 ± 0.0015 | 0.0581 ± 0.0018 | 0.0575 ± 0.0015
L110Q | 0.0555 ± 0.0013 | 0.057 ± 0.00078 | 0.05589 ± 0.00026
G98A | 0.0614 ± 0.00078 | 0.0762 ± 0.0021 | 0.793 ± 0.06
G36W | 0.0579 ± 0.0057 | 0.0601 ± 0.0062 | 0.104 ± 0.0042
G36N | 0.064 ± 0.0018 | 0.09 ± 0.006 | 1.41 ± 0.29
G36C | 0.0618 ± 0.0018 | 0.0865 ± 0.0015 | 0.8609 ± 0.0015
C79I | 0.0557 ± 0.0015 | 0.05351 ± 0.00052 | 0.05387 ± 0.00052
C79M | 0.05974 ± 0.00052 | 0.06121 ± 0.00052 | 0.0592 ± 0.0013
